Measurements from paper PMC7804152, “Structural basis for the multi-activity factor Rad5 in replication stress tolerance”.

How the values were obtained:
[1] = target: T1, KlRad5 (Kluyveromyces lactis, UniProt Q6CJM4 163-1114); test: pull-down; 50 mM NaCl; FP: 20 mM Tris pH 7.5, 50 mM (dsDNA, KlHIRAN) or 70 mM (ssDNA) NaCl, 2 mM MgCl2, 1 nM DNA, room temp; EMSA: 20 mM Tris pH 7.5, 100 mM KCl, 0.5 mM DTT, 3% glycerol, 2 mM MgCl2, 250 ug/mL BSA, 4 C; pull-down: 20 mM Tris pH 7.5, 50 mM NaCl, 4 C; details: protein: recombinant; tags: none; label: 5'-biotin; blunt, self-annealing, 2 copies of D1
T1 sequence: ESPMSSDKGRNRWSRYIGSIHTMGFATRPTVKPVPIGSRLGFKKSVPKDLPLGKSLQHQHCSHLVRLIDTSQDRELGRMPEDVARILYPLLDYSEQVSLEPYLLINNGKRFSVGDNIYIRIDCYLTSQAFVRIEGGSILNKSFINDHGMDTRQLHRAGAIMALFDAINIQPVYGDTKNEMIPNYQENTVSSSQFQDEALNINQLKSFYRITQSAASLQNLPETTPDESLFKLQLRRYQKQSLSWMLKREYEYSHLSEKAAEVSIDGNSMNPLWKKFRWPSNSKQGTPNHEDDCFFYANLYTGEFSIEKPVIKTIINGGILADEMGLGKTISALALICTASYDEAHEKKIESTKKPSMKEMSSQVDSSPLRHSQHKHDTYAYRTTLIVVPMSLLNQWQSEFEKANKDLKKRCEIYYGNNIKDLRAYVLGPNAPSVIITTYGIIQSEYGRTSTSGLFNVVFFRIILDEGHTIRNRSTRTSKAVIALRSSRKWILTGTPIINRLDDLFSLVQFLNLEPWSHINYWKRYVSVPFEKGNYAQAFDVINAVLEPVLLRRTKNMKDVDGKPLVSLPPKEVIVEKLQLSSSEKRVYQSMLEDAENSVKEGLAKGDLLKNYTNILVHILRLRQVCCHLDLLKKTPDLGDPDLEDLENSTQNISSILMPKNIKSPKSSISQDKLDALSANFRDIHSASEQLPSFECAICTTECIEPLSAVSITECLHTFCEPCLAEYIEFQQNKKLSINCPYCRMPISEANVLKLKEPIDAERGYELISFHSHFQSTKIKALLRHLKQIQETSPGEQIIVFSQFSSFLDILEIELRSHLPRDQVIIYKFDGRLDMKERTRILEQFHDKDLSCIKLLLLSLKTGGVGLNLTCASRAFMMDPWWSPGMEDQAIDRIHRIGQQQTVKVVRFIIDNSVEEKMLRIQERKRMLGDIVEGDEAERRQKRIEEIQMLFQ

[2] = target: T1, KlRad5; test: hydrogen-deuterium exchange MS; 200 mM NaCl; protection of 548-554, 684-700, 1039-1049, 1081-1092; FP: 20 mM Tris pH 7.5, 50 mM (dsDNA, KlHIRAN) or 70 mM (ssDNA) NaCl, 2 mM MgCl2, 1 nM DNA, room temp; EMSA: 20 mM Tris pH 7.5, 100 mM KCl, 0.5 mM DTT, 3% glycerol, 2 mM MgCl2, 250 ug/mL BSA, 4 C; pull-down: 20 mM Tris pH 7.5, 50 mM NaCl, 4 C; details: protein: recombinant; tags: none; blunt, self-annealing, 2 copies of D1
[3] = target: T1, KlRad5; test: fluorescence polarization; 50 mM NaCl; high affinity, Kd only in figure; FP: 20 mM Tris pH 7.5, 50 mM (dsDNA, KlHIRAN) or 70 mM (ssDNA) NaCl, 2 mM MgCl2, 1 nM DNA, room temp; EMSA: 20 mM Tris pH 7.5, 100 mM KCl, 0.5 mM DTT, 3% glycerol, 2 mM MgCl2, 250 ug/mL BSA, 4 C; pull-down: 20 mM Tris pH 7.5, 50 mM NaCl, 4 C; details: protein: recombinant; tags: none; label: 5'-FAM; blunt
[4] = target: T2, His-KlRad5 (Kluyveromyces lactis, UniProt Q6CJM4 163-1114); test: fluorescence polarization; FP: 20 mM Tris pH 7.5, 50 mM (dsDNA, KlHIRAN) or 70 mM (ssDNA) NaCl, 2 mM MgCl2, 1 nM DNA, room temp; EMSA: 20 mM Tris pH 7.5, 100 mM KCl, 0.5 mM DTT, 3% glycerol, 2 mM MgCl2, 250 ug/mL BSA, 4 C; pull-down: 20 mM Tris pH 7.5, 50 mM NaCl, 4 C; details: protein: recombinant; tags: N-terminal His6; label: 5'-FAM; blunt
T2 sequence: T1 sequence

[5] = target: T3, KlHIRAN (Kluyveromyces lactis, UniProt Q6CJM4 174-341); test: fluorescence polarization; 50 mM NaCl; stronger than blunt dsDNA; FP: 20 mM Tris pH 7.5, 50 mM (dsDNA, KlHIRAN) or 70 mM (ssDNA) NaCl, 2 mM MgCl2, 1 nM DNA, room temp; EMSA: 20 mM Tris pH 7.5, 100 mM KCl, 0.5 mM DTT, 3% glycerol, 2 mM MgCl2, 250 ug/mL BSA, 4 C; pull-down: 20 mM Tris pH 7.5, 50 mM NaCl, 4 C; details: protein: recombinant, tags: intein-CBD cleaved off
T3 sequence: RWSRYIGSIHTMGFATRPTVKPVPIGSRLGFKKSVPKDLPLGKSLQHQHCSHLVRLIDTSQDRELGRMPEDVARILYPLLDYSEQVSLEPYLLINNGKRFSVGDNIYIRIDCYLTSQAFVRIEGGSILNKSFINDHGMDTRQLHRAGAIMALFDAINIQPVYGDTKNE

B1: D1 dsDNA, 5'-biotin (dsDNA)
DNA 1: TCGGATCCTCTAGACAGCTCCATGCATGGAGCTGTCTAGAGGATCCGA
DNA 2: B1 DNA 1
binding result [1]: binds

B2: D1 dsDNA, unlabelled (dsDNA)
DNA 1: B1 DNA 1
DNA 2: B1 DNA 1
binding result [2]: binds

B3: D2a/D2b dsDNA (dsDNA)
DNA 1: ACCAGTGCCAGTGAT
DNA 2: ATCACTGGCACTGGT
binding result [3]: binds | binding result [4]: binds

CAACGTCATAGACGATTACATTGCTACATGGAGCTGTCTAGAGGATCCGA (ssDNA) [D3a ssDNA]
binding result ([5]; label: 5'-FAM): binds

B4: D3a/D3c 5'-overhang dsDNA (dsDNA)
DNA 1: CAACGTCATAGACGATTACATTGCTACATGGAGCTGTCTAGAGGATCCGA
DNA 2: TCGGATCCTCTAGACAGCTCCATGT
binding result ([5]; label: 5'-FAM on D3a, 5' overhang 25 nt (D3a)): binds

B5: D3a/D3d 3'-overhang dsDNA (dsDNA)
DNA 1: B4 DNA 1
DNA 2: AGCAATGTAATCGTCTATGACGTTG
binding result ([5]; label: 3'-FAM on D3a, 3' overhang 25 nt (D3a)): binds
